Consider 1 molecule from patent US20090217392A1.

Experiment [1] addresses human αvβ3 integrin on cells (human) (UniProt P06756). Briefly: 125-I antibody saturation binding on A375S2 cells.
For experiment [2] the target is unchanged. Put plainly: 125-I antibody saturation binding on M21 cells.
In experiment [3] the target is human αVβ3 integrin, purified (human) (UniProt P06756). Put plainly: saturation ELISA on αvβ3-coated plate, n = 6.
Chain of human αVβ3 integrin, purified (human) (P06756 31-1048, form in doubt, chain 1 of 2): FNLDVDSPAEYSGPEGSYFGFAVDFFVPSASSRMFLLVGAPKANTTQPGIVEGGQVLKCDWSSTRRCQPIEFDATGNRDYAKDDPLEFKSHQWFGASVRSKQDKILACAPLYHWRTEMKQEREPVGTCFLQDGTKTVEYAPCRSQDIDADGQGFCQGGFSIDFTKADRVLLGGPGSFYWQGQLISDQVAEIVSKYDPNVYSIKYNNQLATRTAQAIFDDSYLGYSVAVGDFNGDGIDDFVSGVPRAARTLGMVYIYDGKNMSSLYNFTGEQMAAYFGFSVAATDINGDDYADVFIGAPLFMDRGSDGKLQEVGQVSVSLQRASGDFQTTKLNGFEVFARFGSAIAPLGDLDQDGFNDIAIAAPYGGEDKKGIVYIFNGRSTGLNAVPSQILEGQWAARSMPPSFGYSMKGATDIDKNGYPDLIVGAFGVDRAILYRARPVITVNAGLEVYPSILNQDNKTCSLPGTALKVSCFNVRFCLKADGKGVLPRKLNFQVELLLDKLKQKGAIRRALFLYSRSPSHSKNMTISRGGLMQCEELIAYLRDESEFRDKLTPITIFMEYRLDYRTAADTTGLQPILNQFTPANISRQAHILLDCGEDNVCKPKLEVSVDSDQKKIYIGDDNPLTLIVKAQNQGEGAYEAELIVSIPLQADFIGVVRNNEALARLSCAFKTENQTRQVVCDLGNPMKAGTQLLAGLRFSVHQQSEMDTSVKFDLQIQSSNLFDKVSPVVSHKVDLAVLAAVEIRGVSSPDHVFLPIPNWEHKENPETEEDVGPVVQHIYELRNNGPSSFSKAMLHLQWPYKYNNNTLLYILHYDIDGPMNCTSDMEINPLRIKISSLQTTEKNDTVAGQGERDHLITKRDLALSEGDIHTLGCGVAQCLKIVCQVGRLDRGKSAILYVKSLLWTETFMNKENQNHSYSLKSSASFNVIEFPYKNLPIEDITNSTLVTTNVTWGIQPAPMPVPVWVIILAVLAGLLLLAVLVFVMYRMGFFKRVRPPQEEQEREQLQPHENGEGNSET
Chain of human αVβ3 integrin, purified (human) (P05106 27-788, form in doubt, chain 2 of 2, further chain): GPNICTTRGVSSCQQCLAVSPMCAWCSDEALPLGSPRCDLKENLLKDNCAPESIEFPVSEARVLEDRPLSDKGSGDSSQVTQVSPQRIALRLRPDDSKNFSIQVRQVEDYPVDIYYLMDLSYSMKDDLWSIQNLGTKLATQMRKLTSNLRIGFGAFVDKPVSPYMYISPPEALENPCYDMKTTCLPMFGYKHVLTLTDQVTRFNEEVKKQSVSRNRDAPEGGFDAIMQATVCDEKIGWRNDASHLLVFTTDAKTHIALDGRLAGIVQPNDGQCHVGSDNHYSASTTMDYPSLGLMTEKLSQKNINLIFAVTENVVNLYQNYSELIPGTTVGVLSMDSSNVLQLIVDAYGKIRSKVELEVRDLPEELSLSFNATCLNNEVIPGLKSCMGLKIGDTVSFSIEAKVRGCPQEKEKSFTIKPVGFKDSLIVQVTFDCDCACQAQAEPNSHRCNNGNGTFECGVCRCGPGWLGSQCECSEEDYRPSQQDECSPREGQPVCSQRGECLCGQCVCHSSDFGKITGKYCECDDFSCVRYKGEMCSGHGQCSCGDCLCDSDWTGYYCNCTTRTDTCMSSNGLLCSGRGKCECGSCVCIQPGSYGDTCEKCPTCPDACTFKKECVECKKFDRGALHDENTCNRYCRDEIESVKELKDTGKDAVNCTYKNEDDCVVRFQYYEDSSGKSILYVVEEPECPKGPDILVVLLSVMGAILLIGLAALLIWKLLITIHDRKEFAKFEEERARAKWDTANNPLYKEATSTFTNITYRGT

Chain of human αvβ3 integrin on cells (human) (P06756 31-1048, chain 1 of 2): as the sequence (P06756 31-1048, form in doubt, chain 1 of 2) above
Chain of human αvβ3 integrin on cells (human) (P05106 27-788, chain 2 of 2, further chain): as the sequence (P05106 27-788, form in doubt, chain 2 of 2, further chain) above

B1: abciximab (Fab, INN chains, looked up, V domains shown)
VH: EVQLQQSGTVLARPGASVKMSCEASGYTFTNYWMHWVKQRPGQGLEWIGAIYPGNSDTSYIQKFKGKAKLTAVTSTTSVYMELSSLTNEDSAVYYCTLYDGYYVFAYWGQGTLVTVSA
VL: EIVLTQSPVTLSVTPGDSVSLSCRASRDISNNLHWFQQTSHESPRLLIKYASQSMSGIPSRFSGSGSGTDFTLSINSVETEDFGMYFCQQTNSWPYTFGGGTKLEIK
modifications: Fab 125I label
As for B1, the Kd was determined as 22 nM in experiment [1], 10 nM in experiment [2] and 0.25 nM in experiment [3]. In addition, the Receptors per cell (receptors per cell) turned out to be 370000 in experiment [1] and 660000 in experiment [2].
